Measured values from PMC11191887, “Abstracts From the First Annual Research Day Hosted by the Michigan State University College of Osteopathic Medicine, Novi, Michigan, May 15, 2023” (Spartan Medical Research Journal, 2024).

Molecular target: T1, House dust mite allergen Der p 2 (Dermatophagoides pteronyssinus, UniProt P49278)
T1 construct: Der p 2, major allergen of the house dust mite Dermatophagoides pteronyssinus; The structure is said to show monomeric Der p 2; No PDB id is printed in the abstract; source: Pichia pastoris, purified
Test: crystal structure; purified 4C8 Fab and Der p 2 mixed in a 1:1 molar ratio for crystallization; X-ray, 3.0 Å
Conditions: both partners purified

T1 sequence (P49278 18-146): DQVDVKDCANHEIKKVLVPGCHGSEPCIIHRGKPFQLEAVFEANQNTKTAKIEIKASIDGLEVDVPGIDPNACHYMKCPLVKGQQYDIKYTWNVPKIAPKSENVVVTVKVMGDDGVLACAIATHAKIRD

stoichiometry N: 2
B1: human-derived IgE mAb 4C8 Fab (Fab, V domains shown)
VH: EVQLVESGGGLVQPGGSLRLSCAASGFTFSSYAIHWVRQAPGKGLEWVSGLSGGGGDTDYADSVKGRLTISRDNSKKTLFLEMNNLRPEDTAIYYCAKLTGYGSTPGSYMDVWGKGTTVSVSS
VL: SFELTQPPSVSVSPGQTASITCSGDKLGDIYASWYQQKPGQSPVVVIFQDNKRPSGVPERFSGSNSGNTATLTISGTQALDEADYYCQAWDTSTSVFGTGTKVTVL
notes: Fab of a human IgE mAb isolated from hybridomas obtained from a house dust mite allergic patient; also called hIgE mAb 4C8 Fab; source: CHO cells, purified
